{"source": "patent US20240190987A1", "about": "“Engineered EpCam Binding Antibodies” (TigaTX, priority 2021, published 2024)", "key": {"[1]": {"assay": "UPLC-SEC retention time", "format": "physicochemical", "conditions": "Table 13", "protocol": "LS2B antibody clones derived from the phage display campaign were profiled by analytical UPLC-SEC using a Thermo Vanquish Flex HPLC with a MabPAC 4.6×150 mm SEC column equilibrated in 1×PBS-HCl at pH 7.0. Retention time of each clone was compared to Ab0254 to assess overall developability.\nUPLC-SEC was performed on a Thermo Scientific Vanquish Flex UHPLC system. Protein was diluted to 1-5 μM in HBS buffer and then 1.5-10 μL of sample was injected onto a MabPAC 4.6×150 mm in 1×PBS-HCl at pH 7.0. Data were continuously acquired at ˜280 nm and processed on the Chromeleon 7 software (Thermo Scientific). For the low pH hold assay, prior to injection on the UHPLC, samples were held at pH 3.5 for 1 hour followed by neutralization. For the complex assembly assay, the MabPAC 4.6×150 mm column was pre-equilibrated with 1×PBS-HCl at pH 7.0 and 10 μM Indinavir."}, "[2]": {"assay": "Differential scanning fluorimetry (DSF) melting temperature", "format": "physicochemical", "protocol": "DSF was performed on a LC480 Lightcycler Instrument II (Roche). Purified recombinant protein was diluted to 5 μM in DSF buffer (PBS, pH 7.4, Sypro Orange 5×) with small molecule (10 μM VTX) or vehicle (0.05% DMSO) and then heated with a temperature gradient (0.01° C./s) from 25 to 95° C. Data were continuously acquired at ˜465 nm (excitation) and ˜580 nm (emission). Data was analyzed to generate first derivative curves in which the curve maximum was reported as the melting temperature of the protein."}, "[3]": {"system": "human PBMCs", "assay": "Surface staining of human PBMCs by flow cytometry", "format": "cell-based", "conditions": "TCRab+, CD4+ and CD8+ subsets", "protocol": "(§1) FIG. 32 depicts Ab1070 binding to human and cynomolgus macaque PBMCs. Binding was measured by flow cytometry using a secondary fluorescent antibody (IgG-PE). T-cell subsets were identified using additional fluorescent antibodies against TCRab, CD4 and CD8 and gated prior to quantifying the median fluorescence intensity (MFI) of the IgG-PE channel. […] The assay was performed with up to 10 μM antibodies (titrated as indicated).\n(§2) Peripheral blood mononuclear cells (PBMCs) from healthy cynomolgus macaques (Chinese origin) were obtained commercially (iQ Biosciences, Berkeley, CA). Peripheral blood mononuclear cells (PBMCs) from healthy human donors were isolated from leukapheresis packs (leukopaks) from deidentified healthy adult donors (StemCell Technologies, Vancouver, BC). Human PBMCs were isolated using the EasySep Direct Human PBMC Kit (StemCell Technologies) then cryopreserved in DMEM with 10% FBS and 10% DMSO. Frozen PBMC cryovials were thawed on the day of experiments and washed complete growth media (DMEM+10% FBS+1% penicillin/streptomycin). Cells were resuspended in growth media and transferred to a 96-well U-bottom plate at 55,000 cell/well. Human TruStain FcX (Fc Receptor Blocking Solution; Catalog number 422302; BioLegend, San Diego, CA) was added at a 1:20 final dilution of the manufacturer's stock and incubated for 10 minutes at room temperature in a volume of 25 μL. […]"}, "[4]": {"system": "cynomolgus macaque PBMCs", "assay": "Surface staining of cyno PBMCs by flow cytometry", "format": "cell-based", "conditions": "TCRab+, CD4+ and CD8+ subsets", "protocol": "as §1, §2"}, "[5]": {"assay": "Ab0640 pharmacokinetics in mice", "format": "in vivo", "conditions": "6.7 mg/kg single IV, C57BL/6 mice", "protocol": "Plasma samples were collected at 30 min, 24 hr, 72 hr, and 168 hr and concentrations of the antibodies were determined by ELISA.\nFemale […] mice (age 10-12 weeks) were distributed into 2 groups (n=5 per group). Antibodies were diluted in sterile PBS and injected intravenously at 6.7 mg/kg. Blood (55 μL from the retroorbital sinus) was sampled serially at 4 time points (30 min, 1 day, 3 days, 7 days), processed to plasma, diluted 1:10 in 50% glycerol+PBS, then cryopreserved. Plasma concentrations were quantified using an anti-human IgG sandwich ELISA that was developed and qualified in-house. The capture antibody for the ELISA was goat anti-human IgG (Cat. No. 2049-01; Southern Biotech, Birmingham, AL) coated on 96-well Nunc-Immuno Maxisorp plates (Thermo Fisher Scientific) at […] for 1 hr at 37° C. The detection antibody was mouse anti-human IgG Fc-HRP (Cat. No. 9042-05; Southern Biotech, Birmingham, AL) at 1:32,000 dilution of the manufacturer stock. ELISA coating, blocking, wash, and TMB substrate buffers from BioLegend were used according to the manufacturer's instructions. Non-compartmental pharmacokinetic parameters were calculated using the PKNCA package for R (doi: 10.1007/s10928-015-9432-2)."}, "[6]": {"system": "HCT-116-NR target cells", "assay": "Real-time TDCC by time-lapse microscopy", "format": "cell-based, human", "conditions": "10 nM antibodies, 250 nM indinavir, 5 μM quencher, 120 hours", "protocol": "FIG. 42 depicts real-time measurement of TDCC in a co-culture assay for three exemplary T-LITE pairs. […] T-LITE antibodies were held constant at 10 nM with indinavir (250 nM) added to some wells, as indicated (“ON”). In some wells, a conventional TCE (Ab1007) was included as a positive control. In some wells, an anti-indinavir quencher antibody (5 μM) was added at various time points, as indicated (“OFF”). […] In some wells, no indinavir was added (“Always OFF”). Killing was interrupted by the addition of the quencher at earlier time points (“OFF at” 30 min, 24 h, 44 h, or 49 h). Killing occurred at levels similar to the no-quencher condition (“Always ON”) if the quencher was added at the latest time point (68 h). The assay was performed with human T-cells and HCT-116-NR target cells for 120 hours.\nThe kinetics of TDCC in a co-culture assay were measured using time-lapse microscopy (FIG. 42). […] To test how T-LITE-activated T-cells respond to the removal of indinavir, an “anti-indinavir quencher” was used. […]\nCo-cultures of magnetically isolated human T-cells and target cells were prepared as described above for TDCC assays, with some modifications. […] The IncuCyte software was used to quantify Normalized target cell abundance (red object area per image, normalized to T=0 h)."}}, "data": [{"molecule": "Ab0637: LS2B; HC: V29F+M100eL+M100hL on Ab0596; parent of R4b (antibody, V domains shown) VH: EVQLVESGGGLVQPGGSLRLSCAASGFDFSSYSIHWVRQAPGKGLEWVASISPYYGSTYYADSVKGRFTISADTSKNTAYLQMNSLRAEDTAVYYCARYYEWYKYSLYLGSLGFDYWGQGTLVTVSS VL: DIQMTQSPSSLSASVGDRVTITCRASQSVSSAVAWYQQKPGKAPKLLIYSASSLYSGVPSRFSGSRSGTDFTLTISSLQPEDFATYYCQQGGYSLITFGQGTKVEIK", "values": [{"measurement": "SEC RT", "setting": "[1]", "value": 17.205, "unit": "min"}, {"measurement": "TM (° C.)", "setting": "[2]; Table 13", "value": 78.3, "unit": "°C"}]}, {"molecule": "hSP34v68: humanized SP34 anti-CD3 clone v68, scFv-Fc (antibody, REGION 1..482: note = Ab0640 HC, humanized SP34 anti-CD3 clone v68, scFv-Fc) heavy: EVQLVESGGGLVQPGGSLRLSCAASGFTFNTYAMNWVRQAPGKGLEWVARIRSKYNNYATYYADSVKGRFTISRDDSKSILYLQMNSLRAEDTAVYYCVRHGNFGNSYVSWFAYWGQGTLVTVSSGGGGSGGGGSGGGGSDIQVTQSPSSLSASVGDRVTITCRSSTGAVTTSNYANWVQQKPGKAFKGLIGGTNKLASGVPSRFSGSLSGDDATLTISSLQPEDFATYYCALWYSNLWVFGQGTKLEIKGGGGSDKTHTCPPCPAPEAAGGPSVFLFPPKPKDTLMISRTPEVTCVVVDVSHEDPEVKFNWYVDGVEVHNAKTKPREEQYNSTYRVVSVLTVLHQDWLNGKEYKCKVSNKALGAPIEKTISKAKGQPREPQVYTLPPSRDELTKNQVSLTCLVKGFYPSDIAVEWESNGQPENNYKTTPPVLDSDGSFFLYSKLTVDKSRWQQGNVFSCSVMHEALHNHYTQKSLSLSPGK", "values": [{"measurement": "TM (° C.)", "setting": "[2]; DSF, hSP34v68 R1 variants (Table 23)", "value": 60.7, "unit": "°C"}, {"measurement": "binding to human PBMC T-cell subsets", "setting": "[3]", "value": "Detectable and saturable binding"}, {"measurement": "binding to cyno PBMC T-cell subsets", "setting": "[4]", "value": "Detectable and saturable binding"}, {"measurement": "half-life", "setting": "[5]", "value": 112, "unit": "h"}]}, {"molecule": "Ab1007: conventional TCE positive control (antibody, REGION 1..452: note = Ab1007 Knob HC; REGION 1..482: note = Ab1007 Hole HC; REGION 1..219: note = Ab1007 Knob LC, conventional TCE positive control) heavy 1: EVQLVQSGPGLVQPGGSVRISCAASGYTFTNYGMNWVKQAPGKGLEWMGWINTYTGESTYADSFKGRFTFSLDTSASAAYLQINSLRAEDTAVYYCARFAIKGDYWGQGTLLTVSSASTKGPSVFPLAPSSKSTSGGTAALGCLVKDYFPEPVTVSWNSGALTSGVHTFPAVLQSSGLYSLSSVVTVPSSSLGTQTYICNVNHKPSNTKVDKKVEPKSCDKTHTCPPCPAPEAAGGPSVFLFPPKPKDTLMISRTPEVTCVVVDVSHEDPEVKFNWYVDGVEVHNAKTKPREEQYNSTYRVVSVLTVLHQDWLNGKEYKCKVSNKALGAPIEKTISKAKGQPREPMVFDLPPSREEMTKNQVSLWCMVKGFYPSDIAVEWESNGQPENNYKTTPPVLDSDGSFFLYSKLTVDKSRWQQGNVFSCSVMHEALHNHYTQKSLSLSPGKHHHHHH heavy 2: EVQLVESGGGLVQPGGSLRLSCAASGFTFNTYAMNWVRQAPGKGLEWVARIRSKYNNYATYYADSVKGRFTISRDDSKSILYLQMNSLRAEDTAVYYCVRHGNFGNSYVSWFAYWGQGTLVTVSSGGGGSGGGGSGGGGSDIQVTQSPSSLSASVGDRVTITCRSSTGAVTTSNYANWVQQKPGKAFKGLIGGTNKLAPGVPSRFSGSLSGDDATLTISSLQPEDFATYYCALWYSNLWVFGQGTKLEIKGGGGSDKTHTCPPCPAPEAAGGPSVFLFPPKPKDTLMISRTPEVTCVVVDVSHEDPEVKFNWYVDGVEVHNAKTKPREEQYNSTYRVVSVLTVLHQDWLNGKEYKCKVSNKALGAPIEKTISKAKGQPREPQVYTLPPIRELMTSNQVSLSCAVKGFYPSDIAVEWESNGQPENNYKTTPPVLDSDGSFFLVSKLTVDKSRWQQGNVFSCSVMHEALHNHYTQKSLSLSPGK light: DIQMTQSPSSLSASVGDRVTITCRSTKSLLHSNGITYLYWYQQKPGKAPKLLIYQMSNLASGVPSRFSSSGSGTDFTLTISSLQPEDFATYYCAQNLEIPRTFGQGTKVELKRTVAAPSVFIFPPSDEQLKSGTASVVCLLNNFYPREAKVQWKVDNALQSGNSQESVTEQDSKDSTYSLSSTLTLSKADYEKHKVYACEVTHQGLSSPVTKSFNRGEC", "values": [{"measurement": "real-time TDCC of HCT-116-NR target cells", "setting": "[6]", "value": "depleted of target cells"}]}]}
